# Results taken from US20260015399A1 (Boehringer Ingelheim, published 2026).
# *1 amine or outer side, *2 acyl side, *3 side chain or, on linkers, in order; H or OH if unused. Side-chain parts run from the residue outwards. The star is where a group is joined. C18 diacid = O=C(O)CCCCCCCCCCCCCCCCC(=O)*; γGlu = O=C(O)[C@H](CCC(=O)[*:2])N[*:1]; Isovaleryl = CC(C)CC(=O)*; Ahx = NCCCCCC(=O)O
# T1: human NPY2 receptor (human, UniProt P49146 1-381)
# T1 construct: whole, on cells; also called hNPY2-R; hNPY2R
# T1 sequence (looked up): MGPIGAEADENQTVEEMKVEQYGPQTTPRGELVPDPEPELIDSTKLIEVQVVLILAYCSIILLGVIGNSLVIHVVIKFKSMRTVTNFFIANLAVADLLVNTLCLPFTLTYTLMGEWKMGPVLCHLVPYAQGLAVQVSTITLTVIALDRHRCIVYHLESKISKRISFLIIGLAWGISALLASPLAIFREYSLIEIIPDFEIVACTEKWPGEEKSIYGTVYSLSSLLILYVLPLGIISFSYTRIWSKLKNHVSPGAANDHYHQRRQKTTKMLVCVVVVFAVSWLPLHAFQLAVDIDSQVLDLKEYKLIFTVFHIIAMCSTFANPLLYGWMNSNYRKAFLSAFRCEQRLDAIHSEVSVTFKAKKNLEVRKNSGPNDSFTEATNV
# Biological target: T1, human NPY2 receptor
# Assay: RLB: displacement of 125I-PYY(1-36) from hNPY2R membranes
# Experimental: The filtration RLB assay was carried out in 96-well plates in a final volume of 100 μl per well. Freeze-dried test peptides were dissolved in 100% dimethyl sulfoxide (DMSO) to stock solutions of 1 mM and serial dilutions were performed in assay buffer (50 mM HEPES, 5 mM MgCl₂, 1 mM CaCl₂), pH 7.4) containing 0.2% ovalbumin. […] Next, 80 μL membranes (HTS066M, ChemiSCREEN™ Human Neuropeptide Y2 Receptor Membrane Preparation, CHEMICON) were added to each well to give a final protein concentration of 0.5 μg/well. The plates were sealed and incubated at room temperature for 2 hours in a plate shaker set at 400 rpm. The incubation was stopped by vacuum filtration onto 0.5% polyethylene amine (PEI) presoaked GF/C filters using a 96-well FilterMate™ harvester (Perkin Elmer) followed by four washes with 300 μl/well ice-cold wash buffer (50 mM HEPES, 500 mM NaCl, pH7.4). Filter plates were then dried for 60 min at room temperature and the bottom of the plates was sealed with backing tape UniFilter-96. Finally, 50 μl/well scintillation counter cocktail (Microscint20, Packard) was added and the radioactivity was counted in the Packard TopCount NXT scintillation counter. IC₅₀ values (the half maximal inhibitory concentration of the agonist) were calculated by nonlinear regression analysis of sigmoidal dose-response curves.
row,Binder,Ki
1,Isovaleryl-APEK([Ahx-γGlu-C18 diacid])PEEDPTPEELQRYYVSLRHYYNWLTRQRY-NH2 (SMILES CC(C)CC(=O)N[C@@H](C)C(=O)N1CCC[C@H]1C(=O)N[C@@H](CCC(=O)O)C(=O)N[C@@H](CCCCNC(=O)CCCCCNC(=O)CC[C@H](NC(=O)CCCCCCCCCCCCCCCCC(=O)O)C(=O)O)C(=O)N1CCC[C@H]1C(=O)N[C@@H](CCC(=O)O)C(=O)N[C@@H](CCC(=O)O)C(=O)N[C@@H](CC(=O)O)C(=O)N1CCC[C@H]1C(=O)N[C@H](C(=O)N1CCC[C@H]1C(=O)N[C@@H](CCC(=O)O)C(=O)N[C@@H](CCC(=O)O)C(=O)N[C@@H](CC(C)C)C(=O)N[C@@H](CCC(N)=O)C(=O)N[C@@H](CCCNC(=N)N)C(=O)N[C@@H](Cc1ccc(O)cc1)C(=O)N[C@@H](Cc1ccc(O)cc1)C(=O)N[C@H](C(=O)N[C@@H](CO)C(=O)N[C@@H](CC(C)C)C(=O)N[C@@H](CCCNC(=N)N)C(=O)N[C@@H](Cc1c[nH]cn1)C(=O)N[C@@H](Cc1ccc(O)cc1)C(=O)N[C@@H](Cc1ccc(O)cc1)C(=O)N[C@@H](CC(N)=O)C(=O)N[C@@H](Cc1c[nH]c2ccccc12)C(=O)N[C@@H](CC(C)C)C(=O)N[C@H](C(=O)N[C@@H](CCCNC(=N)N)C(=O)N[C@@H](CCC(N)=O)C(=O)N[C@@H](CCCNC(=N)N)C(=O)N[C@@H](Cc1ccc(O)cc1)C(N)=O)[C@@H](C)O)C(C)C)[C@@H](C)O) [Compound 22],4.98 nM
2,Isovaleryl-APEK([Ahx-γGlu-C18 diacid])PEEDSSPEELQRYYVALRHYYNWLTRQRY-NH2 (SMILES CC(C)CC(=O)N[C@@H](C)C(=O)N1CCC[C@H]1C(=O)N[C@@H](CCC(=O)O)C(=O)N[C@@H](CCCCNC(=O)CCCCCNC(=O)CC[C@H](NC(=O)CCCCCCCCCCCCCCCCC(=O)O)C(=O)O)C(=O)N1CCC[C@H]1C(=O)N[C@@H](CCC(=O)O)C(=O)N[C@@H](CCC(=O)O)C(=O)N[C@@H](CC(=O)O)C(=O)N[C@@H](CO)C(=O)N[C@@H](CO)C(=O)N1CCC[C@H]1C(=O)N[C@@H](CCC(=O)O)C(=O)N[C@@H](CCC(=O)O)C(=O)N[C@@H](CC(C)C)C(=O)N[C@@H](CCC(N)=O)C(=O)N[C@@H](CCCNC(=N)N)C(=O)N[C@@H](Cc1ccc(O)cc1)C(=O)N[C@@H](Cc1ccc(O)cc1)C(=O)N[C@H](C(=O)N[C@@H](C)C(=O)N[C@@H](CC(C)C)C(=O)N[C@@H](CCCNC(=N)N)C(=O)N[C@@H](Cc1c[nH]cn1)C(=O)N[C@@H](Cc1ccc(O)cc1)C(=O)N[C@@H](Cc1ccc(O)cc1)C(=O)N[C@@H](CC(N)=O)C(=O)N[C@@H](Cc1c[nH]c2ccccc12)C(=O)N[C@@H](CC(C)C)C(=O)N[C@H](C(=O)N[C@@H](CCCNC(=N)N)C(=O)N[C@@H](CCC(N)=O)C(=O)N[C@@H](CCCNC(=N)N)C(=O)N[C@@H](Cc1ccc(O)cc1)C(N)=O)[C@@H](C)O)C(C)C) [Compound 24],3.39 nM
3,Isovaleryl-APEK([Ahx-γGlu-C18 diacid])PEEDAEPEESQRYYVSLRHYYNWLTRQRY-NH2 (SMILES CC(C)CC(=O)N[C@@H](C)C(=O)N1CCC[C@H]1C(=O)N[C@@H](CCC(=O)O)C(=O)N[C@@H](CCCCNC(=O)CCCCCNC(=O)CC[C@H](NC(=O)CCCCCCCCCCCCCCCCC(=O)O)C(=O)O)C(=O)N1CCC[C@H]1C(=O)N[C@@H](CCC(=O)O)C(=O)N[C@@H](CCC(=O)O)C(=O)N[C@@H](CC(=O)O)C(=O)N[C@@H](C)C(=O)N[C@@H](CCC(=O)O)C(=O)N1CCC[C@H]1C(=O)N[C@@H](CCC(=O)O)C(=O)N[C@@H](CCC(=O)O)C(=O)N[C@@H](CO)C(=O)N[C@@H](CCC(N)=O)C(=O)N[C@@H](CCCNC(=N)N)C(=O)N[C@@H](Cc1ccc(O)cc1)C(=O)N[C@@H](Cc1ccc(O)cc1)C(=O)N[C@H](C(=O)N[C@@H](CO)C(=O)N[C@@H](CC(C)C)C(=O)N[C@@H](CCCNC(=N)N)C(=O)N[C@@H](Cc1c[nH]cn1)C(=O)N[C@@H](Cc1ccc(O)cc1)C(=O)N[C@@H](Cc1ccc(O)cc1)C(=O)N[C@@H](CC(N)=O)C(=O)N[C@@H](Cc1c[nH]c2ccccc12)C(=O)N[C@@H](CC(C)C)C(=O)N[C@H](C(=O)N[C@@H](CCCNC(=N)N)C(=O)N[C@@H](CCC(N)=O)C(=O)N[C@@H](CCCNC(=N)N)C(=O)N[C@@H](Cc1ccc(O)cc1)C(N)=O)[C@@H](C)O)C(C)C) [Compound 27],10.5 nM
4,Isovaleryl-APEK([Ahx-γGlu-C18 diacid])PEADATPEELQRYYISLRHYYNWLTRQRY-NH2 (SMILES CC[C@H](C)[C@H](NC(=O)[C@H](Cc1ccc(O)cc1)NC(=O)[C@H](Cc1ccc(O)cc1)NC(=O)[C@H](CCCNC(=N)N)NC(=O)[C@H](CCC(N)=O)NC(=O)[C@H](CC(C)C)NC(=O)[C@H](CCC(=O)O)NC(=O)[C@H](CCC(=O)O)NC(=O)[C@@H]1CCCN1C(=O)[C@@H](NC(=O)[C@H](C)NC(=O)[C@H](CC(=O)O)NC(=O)[C@H](C)NC(=O)[C@H](CCC(=O)O)NC(=O)[C@@H]1CCCN1C(=O)[C@H](CCCCNC(=O)CCCCCNC(=O)CC[C@H](NC(=O)CCCCCCCCCCCCCCCCC(=O)O)C(=O)O)NC(=O)[C@H](CCC(=O)O)NC(=O)[C@@H]1CCCN1C(=O)[C@H](C)NC(=O)CC(C)C)[C@@H](C)O)C(=O)N[C@@H](CO)C(=O)N[C@@H](CC(C)C)C(=O)N[C@@H](CCCNC(=N)N)C(=O)N[C@@H](Cc1c[nH]cn1)C(=O)N[C@@H](Cc1ccc(O)cc1)C(=O)N[C@@H](Cc1ccc(O)cc1)C(=O)N[C@@H](CC(N)=O)C(=O)N[C@@H](Cc1c[nH]c2ccccc12)C(=O)N[C@@H](CC(C)C)C(=O)N[C@H](C(=O)N[C@@H](CCCNC(=N)N)C(=O)N[C@@H](CCC(N)=O)C(=O)N[C@@H](CCCNC(=N)N)C(=O)N[C@@H](Cc1ccc(O)cc1)C(N)=O)[C@@H](C)O) [Compound 25],1.55 nM

# Binders with a lower Ki, results first:
row,Ki,Binder
1,0.49 nM,Isovaleryl-APEK([Ahx-γGlu-C18 diacid])PPEDATPEEIQRYYVSLRHYYNWLTRQRY-NH2 (SMILES CC[C@H](C)[C@H](NC(=O)[C@H](CCC(=O)O)NC(=O)[C@H](CCC(=O)O)NC(=O)[C@@H]1CCCN1C(=O)[C@@H](NC(=O)[C@H](C)NC(=O)[C@H](CC(=O)O)NC(=O)[C@H](CCC(=O)O)NC(=O)[C@@H]1CCCN1C(=O)[C@@H]1CCCN1C(=O)[C@H](CCCCNC(=O)CCCCCNC(=O)CC[C@H](NC(=O)CCCCCCCCCCCCCCCCC(=O)O)C(=O)O)NC(=O)[C@H](CCC(=O)O)NC(=O)[C@@H]1CCCN1C(=O)[C@H](C)NC(=O)CC(C)C)[C@@H](C)O)C(=O)N[C@@H](CCC(N)=O)C(=O)N[C@@H](CCCNC(=N)N)C(=O)N[C@@H](Cc1ccc(O)cc1)C(=O)N[C@@H](Cc1ccc(O)cc1)C(=O)N[C@H](C(=O)N[C@@H](CO)C(=O)N[C@@H](CC(C)C)C(=O)N[C@@H](CCCNC(=N)N)C(=O)N[C@@H](Cc1c[nH]cn1)C(=O)N[C@@H](Cc1ccc(O)cc1)C(=O)N[C@@H](Cc1ccc(O)cc1)C(=O)N[C@@H](CC(N)=O)C(=O)N[C@@H](Cc1c[nH]c2ccccc12)C(=O)N[C@@H](CC(C)C)C(=O)N[C@H](C(=O)N[C@@H](CCCNC(=N)N)C(=O)N[C@@H](CCC(N)=O)C(=O)N[C@@H](CCCNC(=N)N)C(=O)N[C@@H](Cc1ccc(O)cc1)C(N)=O)[C@@H](C)O)C(C)C) [Compound 28]
2,1.36 nM,Isovaleryl-APEK([Ahx-γGlu-C18 diacid])PEADSSPEELQRYYVSLRHYYNWLTRQRY-NH2 (SMILES CC(C)CC(=O)N[C@@H](C)C(=O)N1CCC[C@H]1C(=O)N[C@@H](CCC(=O)O)C(=O)N[C@@H](CCCCNC(=O)CCCCCNC(=O)CC[C@H](NC(=O)CCCCCCCCCCCCCCCCC(=O)O)C(=O)O)C(=O)N1CCC[C@H]1C(=O)N[C@@H](CCC(=O)O)C(=O)N[C@@H](C)C(=O)N[C@@H](CC(=O)O)C(=O)N[C@@H](CO)C(=O)N[C@@H](CO)C(=O)N1CCC[C@H]1C(=O)N[C@@H](CCC(=O)O)C(=O)N[C@@H](CCC(=O)O)C(=O)N[C@@H](CC(C)C)C(=O)N[C@@H](CCC(N)=O)C(=O)N[C@@H](CCCNC(=N)N)C(=O)N[C@@H](Cc1ccc(O)cc1)C(=O)N[C@@H](Cc1ccc(O)cc1)C(=O)N[C@H](C(=O)N[C@@H](CO)C(=O)N[C@@H](CC(C)C)C(=O)N[C@@H](CCCNC(=N)N)C(=O)N[C@@H](Cc1c[nH]cn1)C(=O)N[C@@H](Cc1ccc(O)cc1)C(=O)N[C@@H](Cc1ccc(O)cc1)C(=O)N[C@@H](CC(N)=O)C(=O)N[C@@H](Cc1c[nH]c2ccccc12)C(=O)N[C@@H](CC(C)C)C(=O)N[C@H](C(=O)N[C@@H](CCCNC(=N)N)C(=O)N[C@@H](CCC(N)=O)C(=O)N[C@@H](CCCNC(=N)N)C(=O)N[C@@H](Cc1ccc(O)cc1)C(N)=O)[C@@H](C)O)C(C)C) [Compound 29]
